Values of other authors, collected in paper PMC4216181 (Journal of nuclear medicine : official publication, Society …, 2009).

Molecular target: HER2 (Homo sapiens, UniProt P04626)
Details: read-out: dissociation constant [KD]; HER2, nonmodified 2-helix protein; cited from earlier work

## [homoC]NKEMRNRYWEAALDPNLNNQQK-RAKIRSIYDDP[homoC]-NH2 (disulfide) [MUT-DS]
  Kd: 5 nM
